We go through 113 variants from the emibetuzumab library of Makowski et al. (2022).

B1: VH:VL chains; a variant is named by its letters at X, in order (parent)
chain 1: QVQLVQSGAEVKKPGASVKVSCKASGYTFTDYXMHWVRQAPGQGLEWMGXVNPNXXXTTYNQKFEGRVTMTTDTSTSTAYMELRSLRSDDTAVYYCARXNXLDXWGQGTTVTVSS
chain 2: DIQMTQSPSSLSASVGDRVTITCSVSSSVSSIYLHWYQQKPGKAPKLLIYSTSNLASGVPSRFSGSGSGTDFTLTISSLQPEDFATYYCQVYSGYPLTFGGGTKVEIK

This data set covers variants of B1. Put plainly: yeast display scFab, FACS + sequencing. A digest of the protocol: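 For the non-specific binding call, a heavy-chain CDR mutant scFab library on the yeast surface was FACS-sorted and samples from two replicates were deep sequenced. Cells were labelled with anti-Myc and either biotinylated ovalbumin (260 μg/mL in PBSB, 3 h, room temperature) or soluble membrane proteins (130 μg/mL, 20 min on ice), with gates on the top 25% and bottom 10% of binders. With membrane protein and ovalbumin samples pooled, a sequence in ≥3 of 4 positive samples and no negatives was scored positive, and the converse rule scored negatives.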
FAGTGSWD: the non-specific binding call is recorded as “no binding”.

In the case of DAGGGYGV, the non-specific binding call was “no binding”.

With FAGGGDGD, the non-specific binding call is given as “no binding”.

For AARADSAD, the non-specific binding call is “no binding”.

Turning to VAKADALD, the non-specific binding call was “no binding”.

For the variant DARENAGY, the non-specific binding call is given as “no binding”.

Take YAGKTSAD: the non-specific binding call was “binds”.

Consider YAGTGAVA, for which the non-specific binding call is listed as “no binding”.

As for VAGRGSAA, the non-specific binding call is on record as “binds”.

As to FAGTSVGS, the non-specific binding call is “binds”.

Take DAGKGAVV: the non-specific binding call is listed as “no binding”.

As to DAGKGAVY, the non-specific binding call is “no binding”.

In the case of YAKADSGA, the non-specific binding call is listed as “binds”.

Regarding FAGRSDWV chain 1 R67H, the non-specific binding call was “no binding”.

As to SAKRDSAS, the non-specific binding call was “no binding”.

For AARADSSA, the non-specific binding call is reported as “no binding”.

Consider AARADSWV, for which the non-specific binding call is reported as “no binding”.

VAKRDSAS: the non-specific binding call is on record as “no binding”.

For the variant SAREGDLA, the non-specific binding call is on record as “no binding”.

Turning to YAGRGASA, the non-specific binding call was “no binding”.

As for YAREDDGA, the non-specific binding call is reported as “no binding”.

Consider VAKADDWF, for which the non-specific binding call is given as “no binding”.

Turning to AAKEGALV, the non-specific binding call is given as “no binding”.

For FAGRDVGV, the non-specific binding call is recorded as “binds”.

Take YAGRADVV: the non-specific binding call is given as “no binding”.

As for YARAGSVS, the non-specific binding call was “binds”.

Take DAKEGSSA: the non-specific binding call is reported as “no binding”.

As to VAKKNASF, the non-specific binding call is “no binding”.

With FAKAGFVA, the non-specific binding call is “binds”.

As to YARADDVA, the non-specific binding call is given as “no binding”.

Turning to YARADDVF, the non-specific binding call is listed as “no binding”.

DAGKGSVD: the non-specific binding call is listed as “no binding”.

On to AAGGNAWS chain 1 G66S, for which the non-specific binding call is reported as “no binding”.

As to VAGTDAGD, the non-specific binding call was “no binding”.

Consider VAGTDAGA, for which the non-specific binding call is “no binding”.

Take VAGKGAGD: the non-specific binding call is listed as “no binding”.

For AARADDGV, the non-specific binding call is given as “no binding”.

Take AARADDGS: the non-specific binding call is “no binding”.

In the case of FARAAALD, the non-specific binding call was “binds”.

As for AARADAGA, the non-specific binding call is “no binding”.

Turning to YAGRSFGS, the non-specific binding call was “binds”.

In the case of YAGRTAGV, the non-specific binding call is listed as “binds”.

For the variant DAGTAFSS, the non-specific binding call is “binds”.

FARENFLA chain 1 V51A: the non-specific binding call is “binds”.

In the case of YARADSGD, the non-specific binding call was “no binding”.

Take AAGRGFLD: the non-specific binding call was “no binding”.

For DAKEGDAV, the non-specific binding call is on record as “no binding”.

With DAKEGDAD, the non-specific binding call was “no binding”.

Turning to YAREAALS, the non-specific binding call was “binds”.

Consider SAGRGYGD, for which the non-specific binding call was “binds”.

As to SAGRGDWD, the non-specific binding call was “no binding”.

Regarding SAREGDWV, the non-specific binding call is “no binding”.

Turning to VAREGDLA, the non-specific binding call was “no binding”.

In the case of AARADDSV, the non-specific binding call is “no binding”.

Regarding AARADDSA, the non-specific binding call is given as “no binding”.

With AAKRGSWV, the non-specific binding call was “no binding”.

Consider FAGRGVGD, for which the non-specific binding call is listed as “binds”.

With VAGRSDLV chain 1 R67H, the non-specific binding call is on record as “no binding”.

As for SAGRGDGS, the non-specific binding call is “no binding”.

In the case of VAGRSFGS, the non-specific binding call was “binds”.

Regarding YARADSSV, the non-specific binding call is “no binding”.

In the case of YARADSSD, the non-specific binding call was “no binding”.

On to DAGTGDGV, for which the non-specific binding call is “no binding”.

As to DAGTGSWD, the non-specific binding call is on record as “no binding”.

Take YAGKDDWV: the non-specific binding call was “no binding”.

For the variant YAKGDDAS, the non-specific binding call is recorded as “no binding”.

For the variant DAGTGAGD, the non-specific binding call is on record as “no binding”.

Consider YARETAGV, for which the non-specific binding call is recorded as “binds”.

Consider DAGGGYSV, for which the non-specific binding call is “no binding”.

YAGRGDSA: the non-specific binding call is “no binding”.

Regarding FARETFGV, the non-specific binding call was “binds”.

With DAKEGAAA, the non-specific binding call was “no binding”.

For the variant SAGRGSAA, the non-specific binding call is “binds”.

For the variant SAREGYSV, the non-specific binding call is listed as “binds”.

On to SAREGALD, for which the non-specific binding call is “no binding”.

As to YAKGDYSV, the non-specific binding call is recorded as “no binding”.

As for VAGTGDWY, the non-specific binding call was “no binding”.

For VAGTGDWV, the non-specific binding call is “no binding”.

For the variant VAGTGDWA, the non-specific binding call is reported as “no binding”.

Take VAGTGDWD: the non-specific binding call was “no binding”.

Regarding VAGTGDWF, the non-specific binding call is on record as “no binding”.

With VAGKGVLD, the non-specific binding call was “binds”.

Consider YAGKSAGD, for which the non-specific binding call is “no binding”.

Consider YARADDSA, for which the non-specific binding call was “no binding”.

Consider YARADAAA, for which the non-specific binding call is reported as “no binding”.

As for YARAGYAV, the non-specific binding call was “binds”.

Consider VAGTSDGA, for which the non-specific binding call is on record as “no binding”.

Turning to YAGRGDGA, the non-specific binding call is listed as “no binding”.

Consider AARETVGA, for which the non-specific binding call is recorded as “binds”.

YAGRGDVY: the non-specific binding call is “no binding”.

With YAGRGDVS, the non-specific binding call is given as “no binding”.

For the variant YAGRGDVF, the non-specific binding call is reported as “no binding”.

For the variant YAGRGDVD, the non-specific binding call was “no binding”.

On to YARGADGS, for which the non-specific binding call is “no binding”.

Consider YAGRGDLD, for which the non-specific binding call is reported as “no binding”.

Consider YAGRGDLV, for which the non-specific binding call was “no binding”.

Turning to YAGRGDLA, the non-specific binding call is reported as “no binding”.

Regarding YARETDVV, the non-specific binding call is given as “no binding”.

Turning to DARADSLV, the non-specific binding call was “no binding”.

In the case of FAGRGSSD, the non-specific binding call was “binds”.

In the case of DAKEGDLV, the non-specific binding call is “no binding”.

In the case of VAGTGSAD, the non-specific binding call was “no binding”.

YAGKGFGA: the non-specific binding call is listed as “binds”.

As for DAKENAVY, the non-specific binding call was “no binding”.

On to YAGRGVGD, for which the non-specific binding call was “binds”.

With FAKRGAWS, the non-specific binding call is listed as “binds”.

With AARADDWV, the non-specific binding call is listed as “no binding”.

In the case of AARADDWD, the non-specific binding call is given as “no binding”.

Regarding FAGRAAWA, the non-specific binding call is “binds”.

For the variant AARADAVV, the non-specific binding call is recorded as “no binding”.

With AARADAVY, the non-specific binding call is “no binding”.

As to AARADAVA, the non-specific binding call is given as “no binding”.

On to FARAGDWV, for which the non-specific binding call is “binds”.
